Reference: the supplement of paper PMC9732359
± gives the uncertainty stated by the source.

Assay: protein stability index of a GFP-peptide fusion (yeast GPS) (PSI 1-4); higher = more stable; sorted into four equal gates, so the index is relative within each strain
Procedure, shortened: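 Plasmids isolated from each sorting gate were PCR-amplified and Illumina-sequenced, and barcodes assigned the reads to strains. The gates, four of equal size, were set by GFP/Cherry fluorescence ratio on mid-log cultures in leucine-free medium. These cultures were yeast carrying a pooled library of tiled 17-residue yeast protein peptides fused downstream of GFP on a plasmid that also expresses Cherry. The protein stability index is the sum of every gate's read frequency times its gate number.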

| Sequence | protein stability index (doa10∆) | protein stability index (pdr5∆) | protein stability index (san1∆) | protein stability index (ubr1∆) |
| --- | --- | --- | --- | --- |
| IALMGQDNKKIYVHVRR [ESC2] | 2.33 ± 0.081 | 2.57 ± 0.12 | 2.47 ± 0.17 | 2.53 ± 0.068 |
| IAPPVAPHDSEATLLTN [SNF5] | 2.99 ± 0.066 | 2.82 ± 0.068 | 2.93 ± 0.043 | 2.83 ± 0.049 |
| IAQGIDLVRDIDIDKLI [SRP72] | 1.65 ± 0.14 | 1.23 ± 0.12 | 1.58 ± 0.21 | 1.1 ± 0.16 |
| IASLERELILAKKQNYK [YCG1] | 2.6 ± 0.07 | 3.07 ± 0.06 | 2.14 ± 0.084 | 2.42 ± 0.041 |
| ICDPVHKHREARGLTAT [RPL15A] | 3.49 ± 0.12 | 2.81 ± 0.14 | 2.93 ± 0.13 | 3.26 ± 0.099 |
| ICLMTLIETVFVKNIRM [RPN9] | 1.22 ± 0.064 | 1.3 ± 0.069 | 1.22 ± 0.13 | 1.35 ± 0.074 |
| IDDNYIVVVIEIITSLS [SRB8] | 2.6 ± 0.11 | 2.87 ± 0.081 | 2.16 ± 0.082 | 2.22 ± 0.086 |
| IDEAHRIKNEQSALSQI [ISW2] | 2.6 ± 0.1 | 2.17 ± 0.091 | 1.67 ± 0.089 | 3 ± 0.069 |
| IDHINEESWEKVVEFAI [SCL1] | 2.78 ± 0.07 | 3.08 ± 0.082 | 3.03 ± 0.068 | 2.91 ± 0.06 |
| IDKITDGLGNVVDFTSL [YMR129W/POM152] | 3.41 ± 0.11 | 3.53 ± 0.13 | 3.37 ± 0.061 | 3.45 ± 0.1 |
| IDMDKLNTVLIADLDTE [RRP43] | 2.66 ± 0.099 | 3.02 ± 0.07 | 2.83 ± 0.066 | 3.22 ± 0.057 |
| IDNLKDTLKENATEVQK [ITC1] | 2.66 ± 0.05 | 2.87 ± 0.068 | 2.92 ± 0.05 | 2.88 ± 0.05 |
| IDVTFTKVNNQLIKVAV [RPL9A] | 2.23 ± 0.068 | 1.87 ± 0.048 | 1.75 ± 0.087 | 2.44 ± 0.036 |
| IDYKLRVLTQDGRVYIG [SMB1] | 2.49 ± 0.09 | 2.71 ± 0.076 | 1.67 ± 0.11 | 2.5 ± 0.048 |
| IEALYDDDTFSDREMAA [RPN2] | 2.19 ± 0.066 | 1.89 ± 0.051 | 1.57 ± 0.1 | 2.13 ± 0.054 |
| IEKMSTIVQLCKKKEMS [YIL149C/MLP2] | 1.8 ± 0.059 | 1.78 ± 0.055 | 1.59 ± 0.099 | 1.76 ± 0.051 |
| IERYPSKVTKKHGAKKV [RPL27B] | 3.26 ± 0.074 | 3.49 ± 0.095 | 3.43 ± 0.061 | 3.31 ± 0.059 |
| IESALKSKLDQDSTSEN [RPN2] | 2.76 ± 0.072 | 3.04 ± 0.073 | 2.87 ± 0.076 | 2.95 ± 0.1 |
| IETVMTQEQFVKRRRDM [SRB4] | 2.94 ± 0.22 | 3.24 ± 0.12 | 2.92 ± 0.1 | 2.49 ± 0.26 |
| IFALCIYNSTDSNSEIL [YML103C/NUP188] | 1.39 ± 0.17 | 2.19 ± 0.075 | 1.87 ± 0.14 | 1.95 ± 0.086 |
| IFFDEIDAVGGARFDDG [RPT1] | 3.01 ± 0.17 | 2.77 ± 0.15 | 3.24 ± 0.088 | 3.11 ± 0.089 |
| IFKIVQSRLMSTSYHLN [MED6] | 2.25 ± 0.18 | 2.23 ± 0.13 | 1.31 ± 0.096 | 2.31 ± 0.094 |
| IFVSILSDRANKNQDAF [ARP9] | 2.85 ± 0.057 | 2.39 ± 0.058 | 2.53 ± 0.066 | 2.87 ± 0.056 |
| IFWGIRLAKSTENEIPN [BRR2] | 1.42 ± 0.089 | 1.43 ± 0.055 | 1.18 ± 0.13 | 1.49 ± 0.064 |
| IGDTIADGPTMREITET [RPO21] | 3.48 ± 0.11 | 3.52 ± 0.092 | 3.52 ± 0.045 | 3.39 ± 0.059 |
| IGDVDGLIVNPVKVSGT [POP5] | 2.73 ± 0.048 | 3.02 ± 0.046 | 2.66 ± 0.035 | 2.64 ± 0.035 |
| IGDYILKSPVLSKLCVP [QCR7] | 1.55 ± 0.061 | 1.36 ± 0.078 | 1.56 ± 0.11 | 1.69 ± 0.058 |
